# Test results from patent US11491212.
# Biological target: Factor X (FX), P00742
# Sequence (P00742 whole entry, looked up): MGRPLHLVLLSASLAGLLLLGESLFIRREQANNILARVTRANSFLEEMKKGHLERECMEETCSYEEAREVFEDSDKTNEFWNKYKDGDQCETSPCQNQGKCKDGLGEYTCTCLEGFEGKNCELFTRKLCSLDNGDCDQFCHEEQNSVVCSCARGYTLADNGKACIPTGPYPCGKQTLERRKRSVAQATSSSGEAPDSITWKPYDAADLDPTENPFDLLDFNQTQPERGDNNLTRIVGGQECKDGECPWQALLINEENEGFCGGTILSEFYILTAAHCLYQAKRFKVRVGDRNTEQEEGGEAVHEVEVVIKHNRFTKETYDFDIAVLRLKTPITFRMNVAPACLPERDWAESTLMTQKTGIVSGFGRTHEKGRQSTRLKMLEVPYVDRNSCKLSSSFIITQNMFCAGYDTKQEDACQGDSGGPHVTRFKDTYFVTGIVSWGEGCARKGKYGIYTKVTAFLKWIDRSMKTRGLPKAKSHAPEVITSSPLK
Protein,KM,kcat (Catalytic activity of FIXa variants),kcat/KM
FIXa D104N/K106S/Y155F/K228N/K247N/N249S (protein) chain 1: not shown chain 2: not shown,75.3 nM,4.7 s⁻¹,–
FIXa Y155F/K228N/K247N/N249S (protein) chain 1: not shown chain 2: not shown,–,4.3 s⁻¹,–
FIXa Y155F/K247N/N249S/R318Y/R338E/E410N (protein) chain 1: not shown chain 2: not shown,15.3 nM,4.3 s⁻¹,3e+08 M⁻¹ s⁻¹
FIXa R318Y/R338E/R403E/E410S (protein) chain 1: not shown chain 2: not shown,35.1 nM,5.8 s⁻¹,1.8e+08 M⁻¹ s⁻¹
FIXa K247N/N249S/R318Y/R338E/E410N (protein) chain 1: not shown chain 2: not shown,16.6 nM,3.8 s⁻¹,–
